Laboratory results from paper PMC11929898 (Scientific Reports, 2025).

Molecular target: SMC3 (mouse (endogenous in mouse ES cells), UniProt Q9CW03 1-1217)
Experiment: co-IP

Chain of SMC3 (Q9CW03 whole entry): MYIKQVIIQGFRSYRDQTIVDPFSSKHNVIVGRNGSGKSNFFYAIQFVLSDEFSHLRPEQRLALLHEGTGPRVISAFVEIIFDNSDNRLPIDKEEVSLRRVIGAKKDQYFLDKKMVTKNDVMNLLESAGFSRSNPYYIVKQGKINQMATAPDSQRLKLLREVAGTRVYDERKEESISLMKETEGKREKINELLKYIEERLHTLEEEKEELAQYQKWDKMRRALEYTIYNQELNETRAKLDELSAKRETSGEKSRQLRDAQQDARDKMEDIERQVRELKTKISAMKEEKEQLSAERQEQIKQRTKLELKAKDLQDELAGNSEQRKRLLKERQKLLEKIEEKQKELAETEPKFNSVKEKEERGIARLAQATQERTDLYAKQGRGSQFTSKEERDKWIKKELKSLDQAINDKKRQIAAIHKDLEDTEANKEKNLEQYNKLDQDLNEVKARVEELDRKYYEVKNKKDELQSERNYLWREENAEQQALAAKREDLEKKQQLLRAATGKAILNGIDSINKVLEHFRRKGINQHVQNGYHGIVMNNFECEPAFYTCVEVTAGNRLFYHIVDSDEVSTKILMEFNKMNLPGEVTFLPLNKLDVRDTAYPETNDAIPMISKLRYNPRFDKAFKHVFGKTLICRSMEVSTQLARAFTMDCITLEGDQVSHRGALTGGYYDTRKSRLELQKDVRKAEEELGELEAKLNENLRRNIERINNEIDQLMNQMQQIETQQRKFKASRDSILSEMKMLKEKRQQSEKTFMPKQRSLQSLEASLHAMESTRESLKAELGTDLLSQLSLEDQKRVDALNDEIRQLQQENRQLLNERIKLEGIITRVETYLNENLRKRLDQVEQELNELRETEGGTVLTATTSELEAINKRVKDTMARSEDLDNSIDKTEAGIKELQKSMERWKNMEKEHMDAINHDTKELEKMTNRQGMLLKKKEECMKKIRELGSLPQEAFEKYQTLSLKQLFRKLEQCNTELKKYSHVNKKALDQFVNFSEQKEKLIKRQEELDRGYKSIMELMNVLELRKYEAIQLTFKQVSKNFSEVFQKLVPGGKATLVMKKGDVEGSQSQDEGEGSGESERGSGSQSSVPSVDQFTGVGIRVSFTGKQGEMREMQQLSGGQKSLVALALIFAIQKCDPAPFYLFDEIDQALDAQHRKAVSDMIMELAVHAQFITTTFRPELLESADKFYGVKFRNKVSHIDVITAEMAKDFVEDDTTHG

fold change of co-IP with siRad21 against siCtrl: 1.92 fold
B1: REC8 (natural protein)
chain: MFYYPNVLQRHTGCFATIWLAATRGSRLVKREYLNVNVVKTCEEILNYVLVRVQPPVAGLPRPRFSLYLSAQLQIGVIRVYFQQCQYLVEDIQHILEHLHRAQLRIRIDMEEADLPSLLLPNCLAMMETLEDAPEPFFGKMSVDPRLPSPFDIPQIRHLLEAATPEKTRKETLPEATPDPRKPDRTLATVQSPEVITLQEAEPIRMLQIEGEQDLPEISRGDLELLIAEKDDAILLEERQRGRLLRQRRASLPLDESREEPRALEGAGLVSALSPPAPAQVEGIQEALPGQVFPPEVQKMTGWEPGALLTEVTPPQELRLPAPPSTEKRLPSLQRPLPRRHRRRQLLFWDKETQISREKFEEQLQTGAHCWEYPVAQPPKRMLTSPAELFRTPTLSGWLPPELLGLWTHCAQVPQRMLRQRPQLETEETVEEERAADEEERRKTEALSEIEVLREAQEPSGPLMLSSELSLEAAEDEKSRTSLIPPEWWAWSEEGQPEPPALPMLPELPEVPMEMPPRPELSSEAVLRAVALKLQANKELDFSSLVPPLSPRKLASRVFYLLLVLSTQKILLVEQQKPYGPLLIRPGPKFP
